Experimental data: patent US20240076386A1 (Pfizer, published 2024)

T1: human E-selectin, cell-surface expressed (human, UniProt P16581 22-610)
T1 construct: also called CHO-human E-selectin cells; human CHO-E
T1 sequence: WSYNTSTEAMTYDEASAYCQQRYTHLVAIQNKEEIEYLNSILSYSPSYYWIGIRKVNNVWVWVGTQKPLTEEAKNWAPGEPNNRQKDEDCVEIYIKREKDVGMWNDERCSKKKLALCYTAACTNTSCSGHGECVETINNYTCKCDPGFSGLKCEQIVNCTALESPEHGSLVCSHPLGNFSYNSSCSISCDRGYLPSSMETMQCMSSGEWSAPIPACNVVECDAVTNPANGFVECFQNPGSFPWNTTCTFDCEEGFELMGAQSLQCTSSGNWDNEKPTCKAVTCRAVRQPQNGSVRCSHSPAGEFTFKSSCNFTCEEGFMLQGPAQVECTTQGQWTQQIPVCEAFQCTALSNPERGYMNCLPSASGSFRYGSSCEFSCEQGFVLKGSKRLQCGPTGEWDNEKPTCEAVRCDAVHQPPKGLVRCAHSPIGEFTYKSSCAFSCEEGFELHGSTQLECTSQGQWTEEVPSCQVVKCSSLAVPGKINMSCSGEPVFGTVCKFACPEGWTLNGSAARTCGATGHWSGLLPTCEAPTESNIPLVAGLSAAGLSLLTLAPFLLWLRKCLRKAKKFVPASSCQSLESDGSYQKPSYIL

T2: cynomolgus monkey E-selectin, cell-surface expressed (cynomolgus monkey, UniProt P16581 22-610 (human entry))
T2 construct: also called CHO-cynomolgus monkey E-selectin cells; cynomolgus monkey CHO-E
T2 chain: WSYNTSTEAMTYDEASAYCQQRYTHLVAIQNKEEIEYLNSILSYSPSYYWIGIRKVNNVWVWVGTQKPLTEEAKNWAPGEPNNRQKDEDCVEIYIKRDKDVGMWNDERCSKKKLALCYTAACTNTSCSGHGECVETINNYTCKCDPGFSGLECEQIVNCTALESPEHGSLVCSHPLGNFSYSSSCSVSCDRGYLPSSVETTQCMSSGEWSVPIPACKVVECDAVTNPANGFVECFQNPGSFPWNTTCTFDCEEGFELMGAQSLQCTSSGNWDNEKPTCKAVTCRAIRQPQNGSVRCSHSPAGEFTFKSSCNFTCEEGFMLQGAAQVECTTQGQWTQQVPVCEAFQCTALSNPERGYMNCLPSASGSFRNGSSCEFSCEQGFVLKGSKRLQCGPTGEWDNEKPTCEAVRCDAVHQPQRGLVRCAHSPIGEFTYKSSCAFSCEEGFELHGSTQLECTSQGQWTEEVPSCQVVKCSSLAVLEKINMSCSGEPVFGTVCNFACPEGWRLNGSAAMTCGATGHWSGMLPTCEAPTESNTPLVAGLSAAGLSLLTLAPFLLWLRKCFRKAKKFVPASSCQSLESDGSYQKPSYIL


Key:
[1] = molecular target: T1, human E-selectin, cell-surface expressed; test: flow cytometry, CHO cells
Experimental: CHO cell lines expressing human E-selectin were detached from confluent flasks using enzyme-free Cell Dissociation Buffer (GIBCO, 13151014). Growth media was immediately added to the detached cells, then centrifuged at 300×g for 5 minutes at room temperature to pellet the cells. The cells were then resuspended in cold CHO buffer consisting of phosphate buffered saline (PBS), pH 7.4 containing bovine serum albumin (BSA; Sigma-Aldrich, A³⁰⁵⁹) at final concentration of 1%, calcium chloride at final concentration of 1 mM, and sodium azide at a final concentration of 0.1%.
Binding studies with CHO cells were performed in duplicate using two rows of a 96-well round bottom plate, whereas, binding studies with primary endothelial cells were performed in a single row of a 96-well V-bottom plate. The plates were centrifuged at 300×g for 2 minutes at 4° C. and the cells were resuspended and blocked by incubation in the CHO buffer for 10 minutes on wet ice. After incubation, the cells were centrifuged at 300×g for 2 minutes at 4° C. to remove the buffer. […] After incubation with the antibody, the cells were washed three times by centrifugation at 300×g for 1 minute at 4° C. and resuspended in cold CHO buffer. The washed cells were resuspended and incubated with 100 μL of 1:1000 dilution of AlexaFluor647-conjugated goat anti-human F(ab′)₂ Fragment (Fcγ fragment specific antibody, [Jackson Innnnunoresearch, 109-606-170] for 45 minutes (CHO cells) or 30 minutes (endothelial cells) on wet ice. The cells were washed three or four times prior to resuspension in CHO buffer for flow cytometric analysis. A Becton Dickinson LSRFortessa instrument using 640 nanometer laser line was used to acquire cell fluorescence data. Geometric mean fluorescence of cells was analyzed by FlowJo software package (FlowJo, LLC) and plotted against antibody concentration. The estimated EC₅₀ values were calculated using nonlinear regression analysis in the Prism suite (GraphPad, version 8).

[2] = molecular target: T2, cynomolgus monkey E-selectin, …; test: competition ELISA on CHO cells vs sialyl Lewis ligand-PAA-biotin/SA-HRP
Experimental: In a static ligand cellular adhesion assay, horse radish peroxidase (HRP) conjugated E-selectin ligand (sialyl Lewis antigen) and E-selectin antibodies compete for binding to human or cynomolgus E-selectin expressed on Chinese hamster ovary (CHO) cells. The ability of anti-E-selectin antibodies to neutralize ligand binding was assessed in a static neutralization assay using a competition enzyme-linked immunosorbent assay (ELISA) to evaluate the neutralization of the sialyl Lewis antigen to Chinese hamster ovary cells (CHO) engineered to express human or cynomolgus monkey E-selectin.
CHO cells expressing E-selectin were seeded at 12,500 cells per well into a 96 well tissue culture plate and incubated at 37° C., 5% CO₂ for 48 hours to form a confluent monolayer. Plates were subsequently washed twice with 200 μL of calcium magnesium free PBS. Anti-E-selectin antibodies or an IgG1 isotype control (IgG control) were added to the assay in the presence of a small synthetic conjugate of biotinylated, sialyl Lewis A polyacrylamide (Carbosynth LLC, OS45446) or sialyl Lewis X polyacrylamide (Glycotech, 01-045) with streptavidin/horseradish peroxidase (100 μL total) and incubated at 37° C., 5% CO₂ for 2 hours. Plates were then washed twice with 200 μL of calcium and magnesium free PBS. Following the incubation, the cells were washed twice with 200 μL of wash buffer containing 2 mM of calcium chloride (50 mM TRIS [trisaminomethane], 150 mM sodium chloride; 0.05% polysorbate 20, pH 7.4; 2 mM calcium chloride). Signal was developed by adding 100 μL of 1-Step Ultra TMB substrate (Thermo Scientific, 34028) and incubating for 30 minutes at room temperature. Reactions were stopped using 2 M of sulfuric acid and absorbance was read at 450 nm (Spectramax M5e). Data were analyzed and graphed using GraphPad Prism software (Version 8.0.2).

| Binder | EC50 [1] [nM] | IC50 [2] [nM] |
| --- | --- | --- |
| anti-E-selectin antibody 0164 chimera (antibody, human IgG1, kappa, V domains shown, rat VH/VL on effector-null human IgG1 and human kappa) VH: EVQLQQSGAEFGKPGTSVKLSCKVSGYNIRSSYMHWVNQRPGKGLEWIGRIDPANGNTIYAEKFKIKAILTADSSSNTAYMQLSQLKSDDTAIYFCAMDLYSTSEYWGQGVMVTVSS VL: DIQMTQSPSFLSASVGDRVTINCKTSQNINRYLNWYQQKLGEAPKLLIYNANSLQTGIPSRFSASGSGTDFTLTINSLQPEDVATYFCLQDNSWPLTFGSGTKLEIKR | – | 2.25 |
| optimized anti-E-selectin antibody 1282 (antibody, human IgG1, kappa, V domains shown, effector-null human IgG1, kappa) VH: EVQLVESGGGLVQPGGSLRLSCAASGYAIRSAYMHWVRQAPGKGLEWVARIDPANGNTIYVDSVEGRFTISADNAKNSAYLQMNSLRAEDTAVYYCAMDLYSTSEYWGQGTLVTVSS VL: DIQMTQSPSSLSASVGDRVTITCKTSQNIERYLNWYQQKPGKAPKLLIYAASSLQSGVPSRFSGSGSGTDFTLTISSLQPEDFATYFCLQDNAWPLTFGQGTKVEIKR | 0.85 | 1.29 |
| optimized anti-E-selectin antibody 1448 (antibody, human IgG1, kappa, V domains shown, effector-null human IgG1, kappa) VH: EVQLVESGGGLVQPGGSLRLSCAASGYAIRSAYMHWVRQAPGKGLEWVARIDPANGNTIYVDSVKERFTISADNAKNSAYLQMNSLRAEDTAVYYCAMDLYSTSEYWGQGTLVTVSS VL: DIQMTQSPSSLSASVGDRVTITCKTSQNIERYLNWYQQKPGKAPKLLIYAASSLQSGVPSRFSGSGSGTDFTLTISSLQPEDFATYFCLQDNAWPLTFGQGTKVEIKR | 0.75 | 1.85 |

The remaining binders from weak to strong by EC50 [1], led by results:

| EC50 [1] [nM] | IC50 [2] [nM] | Binder |
| --- | --- | --- |
| 0.71 | – | humanized anti-E-selectin antibody 0841 (antibody, human IgG1, kappa, V domains shown, effector-null human IgG1, kappa) VH: EVQLVESGGGLVQPGGSLRLSCAASGYNIRSSYMHWVRQAPGKGLEWVARIDPANGNTIYAEKFKIRFTISADNAKNSAYLQMNSLRAEDTAVYYCAMDLYSTSEYWGQGTLVTVSS VL: DIQMTQSPSSLSASVGDRVTITCKTSQNINRYLNWYQQKPGKAPKLLIYNANSLQTGVPSRFSGSGSGTDFTLTISSLQPEDFATYFCLQDNSWPLTFGQGTKVEIKR |
| 0.66 | 2.65 | optimized anti-E-selectin antibody 1444 (antibody, human IgG1, kappa, V domains shown, effector-null human IgG1, kappa) VH: EVQLVESGGGLVQPGGSLRLSCAASGYAIRSAYMHWVRQAPGKGLEWVARIDPANGNTIYVDSVTGRFTISADNAKNSAYLQMNSLRAEDTAVYYCAMDLYSTSEYWGQGTLVTVSS VL: DIQMTQSPSSLSASVGDRVTITCKTSQNIERYLNWYQQKPGKAPKLLIYAASSLQSGVPSRFSGSGSGTDFTLTISSLQPEDFATYFCLQDNAWPLTFGQGTKVEIKR |
| 0.64 | 1.91 | optimized anti-E-selectin antibody 1284 (antibody, human IgG1, kappa, V domains shown, effector-null human IgG1, kappa) VH: EVQLVESGGGLVQPGGSLRLSCAASGYAIRSAYMHWVRQAPGKGLEWVARIDPANGNTIYVESVEGRFTISADNAKNSAYLQMNSLRAEDTAVYYCAMDLYSTSEYWGQGTLVTVSS VL: DIQMTQSPSSLSASVGDRVTITCKTSQNIERYLNWYQQKPGKAPKLLIYAASSLQSGVPSRFSGSGSGTDFTLTISSLQPEDFATYFCLQDNAWPLTFGQGTKVEIKR |
